Data taken from publication PMC4597100.

Key:
[1] = target: MLL1(3745–3969) SET domain construct containing the WIN motif, AviTag, biotinylated (human) (UniProt Q03164)
[2] = target: MLL4(5308–5537) SET domain construct containing the WIN motif, AviTag, biotinylated (human) (UniProt O14686)

Chain of UniProt Q03164 (Q03164 3745-3969): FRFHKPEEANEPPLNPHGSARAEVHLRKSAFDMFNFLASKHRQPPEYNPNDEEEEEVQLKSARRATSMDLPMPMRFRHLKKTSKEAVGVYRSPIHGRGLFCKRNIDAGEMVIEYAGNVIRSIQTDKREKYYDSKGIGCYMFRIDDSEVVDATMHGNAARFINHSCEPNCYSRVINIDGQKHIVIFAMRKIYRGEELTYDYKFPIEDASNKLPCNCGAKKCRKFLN

KM (H3 peptide) of methyltransferase activity without WRAD, saturating SAM [1]: 430 µM
KM (H3 peptide) of methyltransferase activity without WRAD, saturating SAM [2]: 251 µM
Binder: ARTKQTARKSTGGKAPRY [histone H3 amino terminal peptide substrate (…-Y), unmodified]
